Assay: yeast display, Sf9 membrane polyspecificity reagent, FACS + sequencing; frameworks hold sequencing errors
Outline: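 Galactose induction of a Saccharomyces cerevisiae BJ5465 synthetic nanobody display library ran 36–48 hours. The cells were then stained for 1 hour at 4 °C with 10% biotinylated, detergent-solubilized Sf9 membrane reagent, pulled down on streptavidin microbeads and FACS-sorted into low and high (top ~1%) gates on expression and reagent-binding fluorescence. Labels for polyreactivity follow the gate of origin.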

Sequence	polyreactivity (PSR sort gate)
QVQLVQSGGCLVQAGGSLRLSCAASGRIFGYYAIGWYRQAPGKERELVAGISRSGGSTYYADSVKWRFTISRDKAKNTVYLQMNSLKPEDTAVYYCAARFNGQTYYYWGQGTQGTVSS	high polyreactivity
QVQLVQSGGGIVQAGGSLRISCAASGFIFSSYDMGWYRQAPGKESELVAAISWTGGSTYYADSVKARFTISRDNAKNTVYLQMTSLKPEETAVYYCNAYPYFLVRIMDSWGQGTEVTVSS	high polyreactivity
QVQLVQSGGGLVEAGGSLRLSCAASGSNFWANAMGWYRQAPGKERELVAGITLNGGLTYYADSVKGRFTISRDNAKNTVYLQMYSLKPEETEVYFCAAAYPTDRHYYWGLGTQVTVSS	low polyreactivity
QVQLVQSGGGLVQAAGSLRLICAASGRTFPANAMGWYRQAPGKERELVAGITKSGGNTYYADSVKGRFTISRDNAKNTVYLQMNSLKPEDTAVYYCATRYYPLVNYLGYDYWGQGTQVTVSS	low polyreactivity
QVQLVQSGGGLVQAGGSLRISCAPSGLTCNGNAMGWYRQAPGKEREMVAAISSSGGTTYYADSVKGRFTISRDNAKNTVYLEMNSLKPEDTAVSYCAARPSGGYESTRTRDYWGQGTQVNVSS	low polyreactivity
QVQLVQSGGGLVQAGGSLRLSCAASGIIFFKYAMGWYRQAPGKERELVAAITESTSSTYYADSVKGRFTISRDNAKNTVYLEMNSMKTEDTAVYYCAARVSQWLPYGGYSRYYYWGQGTQVTVSS	high polyreactivity
QVQLVQSGGGLVQAGGSLRLSCAASGLTNYRYAMGWNRQAPGQEREFVAGISASGGGSSYADSVKGRFTISRDNAKNTVYLQMNRLKPEDTAVYYCAATTTFFVWQGHNYCGQGTQVTVSS	low polyreactivity
QVQLVQSGGGLVQAGGSLRLSCAASGNIISIYVMGWYRQAPGKERELVAAITSGGSTNYADSVKGRFTISRDNAKNTVYFQMNSLKPEDTAVYYCAAERNADDESYYWGQGSQVTVSS	low polyreactivity
QVQLVQSGGGLVQAGGSLRLSCAASGRTFRIYAMGWYRQAPWKEREFVAGITRSDGSTYYADSVKGRFTISRDNAKNTVYLQMISLKPEDTAVYYCNVEPYSHYRSTEDYWGQGTQVTVSS	high polyreactivity
QVQLVQSGGGLVQAGGSLRLSCAASGRTFYRNGMGWYREAPGKDREFVAAINYRGGSTNYADSVKGRFTITRDNAKITVYLQMNSLKPEDTAVYYCATRIFRAALRFDYWGQGTQVTVSS	high polyreactivity
QVQLVQSGGGLVQAGGSLRLSCAASGRTFYYAMGWYRQAPGKERELVARITRRGGSTYYADSVKGRFTISRDNAKNTVYLQMNSLKPEDTAVYYCNARWHRYLLATYGYWVQGTQVTVSS	high polyreactivity
QVQLVQSGGGLVQAGGSLRLSCAASGSIFTSYAMGWYRQAPGKERELVAAINGSGGSTFYADSVKGRFTISRDHAKNTVYLQMNSLNPEYTAVYYCYTVGPRGTTYDDWGQGSQVTVSS	low polyreactivity
QVQLVQSGGGLVQAGGSLRLSCAASGYILNPYAMGWYRPAPGKERELVAAITSGTITYYADSVKGRFTITRDNAKNTVYLQMNSLKPEDTAVYYCAADSWAHYESYDYWGQGTQVTVSS	low polyreactivity
QVQLVQSGGGLVQAGGSLRLSSAASGSTFWANAMGWYRQAPGKERELVAAISVRGGNTYYADSVKGRFTISRDNAKNTVYLQMNSLKPEDTAVYYCAARPISWTSYYDYWGQGTQVSVSS	high polyreactivity
QVQLVQSGGGLVQARGILRLSCPPSGINFWYNAMGWYSQAQGKERELVASISTGGRTYYADSVKGRFTFSRDNAKNTVYLQMNSLKPVDTAVYYCAAASRVGFLYYYWGQGSQVTVSS	low polyreactivity
QVQLVQSGGGLVQEGGSLRLSCYASGRIFSIYTLGWYRQAPGKERELVAAIRWSGGSTYYADSVKWRLTISRDNAKNTVYLQMNSLKPEDTAVYYCARQSVLGYRSYGPFPKYYYWGQGTQVTVSS	high polyreactivity
QVQLVQSGGGVVQAGGSLRLSCAASGRIFNTNAMGWYRHAPGKERELVAGITDSGDSTYYADSVKGRFTISRDNAKITVYLQMYSLKPEDSAVYYCATDPASPYIYDFWGLGTQVTVSS	low polyreactivity

From the nanobody polyreactivity screen of Harvey et al. (2022)
